US20120134979A1, “METHODS AND COMPOSITIONS FOR THE TREATMENT OF SICKLE CELL DISEASE” (priority 2010, published 2012)

What was measured:
Format in all cases: in vivo, mouse
WT mice = experiment: WT (control) mice treated with PEG-ADA or PSB1115 for 8 weeks; settings: chronic PEG-ADA enzyme therapy
Description: Mice. Berkley sickle cell disease transgenic mice (SCD Tg mice), expressing exclusively human sickle hemoglobin (HbS) were purchased from The Jackson Laboratory Inc (Paszty, C. Transgenic and gene knock-out mouse models of sickle cell anemia and the thalassemias. Curr Opin Hematol 4, 88-93, 1997). C57BL/6 mice used as controls were purchased from Harlan Laboratories. Adenosine receptor deficient mice were obtained from the following sources: A1R-deficient mice (Jurgen Schnermann, NIDDK, NIH); A2AR-deficient mice (Jiang-Fan Chen, Boston University School of Medicine); A2BR-deficient mice (Michael R. Blackburn, University of Texas-Houston Medical School); and A3R-deficient mice (Marlene Jacobson, Merck Research Laboratories). […]
Mouse organ isolation and histological analysis. Mice were anesthetized and body weight was determined. […] Semiquantification of histological changes was analyzed by Image-Plus, Pro software.

SCD Tg mice [1] = experiment: 2,3-DPG in RBCs and saturated Hb in SCD Tg mice after chronic treatment
Protocol: Chronic PEG-ADA therapy. SCD transgenic mice, at eight weeks of age, were divided to two groups. One group was injected with 2.5 U PEG-ADA weekly for 8 weeks. This dosing protocol was designated SCD with PEG-ADA treatment regimen (SCD+PEG-ADA). Another group was injected with normal saline for 8 weeks; it was designated as SCD without PEG-ADA treatment regimen (SCD). Wild-type mice (C57Bl/6) used as control were injected with saline or PEG-ADA as with the SCD groups.
Chronic treatment with A2BR antagonist, PSB1115. SCD transgenic mice or wild type mice (eight weeks of age) were divided to two groups, one groups was injected with 200 μg of PSB1115 (an A2B receptor antagonist: obtained from Tocris Bioscience, St. Louis, Mo.) in PBS, daily for 8 weeks. One of groups was injected with saline.
2,3-DPG analysis. 2,3-DPG concentration in RBCs was detected by a commercially available kit (Roche, Nutley, N.J., and as described in Ericson A, de Verdier C H. A modified method for the determination of 2,3-diphosphoglycerate in erythrocytes. Scandinavian journal of clinical and laboratory investigation. 1972; 29(1):84-90).
Measurement of percentage of saturated Hb in mice. Percentage of saturated Hb (SpO2) in mice was measured by Oxysat (Kent Scientific Corp, CT). Mice were held in mouse holders (Kent Scientific Corp, CT) and Oxysat sensor was placed on a site approximately 1 cm from the base of the tail. When mouse was calm, the SpO2 was continuously recorded for about 2 minutes. The data were collected and SpO2 was calculated by average of SpO2 in two-minute measurement.

SCD Tg mice [2] = experiment: Lung inflammation (neutrophils, cytokines) after hypoxia/reoxygenation in SCD Tg mice; settings: hypoxia-reoxygenation
Description: Hypoxia/reoxygenation of SCD Tg mice. SCD Tg mice were subjected to two-hour hypoxic condition with 8% oxygen. After hypoxia, mice were returned to normoxic conditions for four hours Wallace, et al. NKT cells mediate pulmonary inflammation and dysfunction in murine sickle cell disease through production of IFN-gamma and CXCR3 chemokines. Blood. 2009; 114(3):667-676). At the end of the experiments, mice were sacrificed and blood collected for adenosine measurement, sickling and hemolytic analysis.
Immunohistochemistry to assess neutrophil infiltration in the lung. To quantify neutrophils, a specific neutrophil antibody, was used as described (Zhou, et al., Enhanced airway inflammation and remodeling in adenosine deaminase-deficient mice lacking the A2B adenosine receptor. J. Immunol. 2009; 182(12):8037-8046). Rehydrated slides were quenched with 3% hydrogen peroxide, Ag retrieval performed (Dako), and endogenous avidin and biotin blocked with a Biotin Blocking System (Dako). […] Quantification of distal airway neutrophils-positive cells was performed on 20 fields/mouse lung section at ×20 using software analysis (Image Pro Plus 4.0; Media Cybernetics, Bethesda, Md., USA).
ELISA for INF-γ, IL-6, IL-1β and GM-CSF measurement in the mouse lung homongenates. INF-γ, IL-6, IL-1β and GM-CSF levels in lung homogenates were determined using ELISA kits (QUANGI).

B1: PEG-ADA: polyethylene glycol-modified adenosine deaminase, a drug used to lower adenosine concentrations in ADA-deficient humans (protein, UniProt P56658 2-363, looked up)
Adenosine deaminase: AQTPAFNKPKVELHVHLDGAIKPETILYYGRKRGIALPADTPEELQNIIGMDKPLSLPEFLAKFDYYMPAIAGCREAVKRIAYEFVEMKAKDGVVYVEVRYSPHLLANSKVEPIPWNQAEGDLTPDEVVSLVNQGLQEGERDFGVKVRSILCCMRHQPSWSSEVVELCKKYREQTVVAIDLAGDETIEGSSLFPGHVKAYAEAVKSGVHRTVHAGEVGSANVVKEAVDTLKTERLGHGYHTLEDATLYNRLRQENMHFEVCPWSSYLTGAWKPDTEHPVVRFKNDQVNYSLNTDDPLIFKSTLDTDYQMTKNEMGFTEEEFKRLNINAAKSSFLPEDEKKELLDLLYKAYGMPSPASAEQCL
modifications: PEGylated
effect on kidney histology of control mice (WT mice): no significant effect | percentage of saturated Hb (SCD Tg mice [1]; chronic PEG-ADA treatment): increased | 2,3-DPG levels in the RBCs (SCD Tg mice [1]; steady state, 8 weeks treatment): reduction | neutrophil infiltration in the lungs (SCD Tg mice [2]; image quantification): significantly lowered | proinflammatory cytokines in the lungs (INF-γ, IL-6, IL-1β and GM-CSF) (SCD Tg mice [2]; lung homogenates): significantly decreased
